± gives the uncertainty stated by the source.
Assay: self-splicing fitness, log relative to wild type (ln ratio); higher = more splicing; Tetrahymena group I intron in knt gene, E. coli kanamycin selection, DiMSum; sequences stand for … in CUCUCU…GGAGGGAAAAGUUAUCAGGCAUGCACCUGGUAGCUAGUCUUUAAACCAAUAGAUUGCAUCGGUUUAAAAGGCAAGACCGUCAAAUUGCGGGAAAGGGGUCAACAGCCGUUCAGUACCAAGUCUCAGGGGAAACUUUGAGAUGGCCUUGCAAAGGGUAUGGUAAUAAGCUGACGGACAUGGUCCUAACCACGCAGCCAAGUCCUAAGUCAACAGAUCUUCUGUUGAUAUGGAUGCAGUUCACAGACUAAAUGUCGGUCGGGGAAGAUGUAUUCUUCUCAUAAGAUAUAGUCGGACCUCUCCUUAAUGGGAGCUAGCGGAUGAAGUGAUGCAACACUGGAGCCGCUGGGAACUAAUUUGUAUGCGAAAGUAUAUUGAUUAGUUUUGGAGUACUCGUGGUCG
In short: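 DiMSum derived fitness as the error-weighted combination of fold changes across replicates, kanamycin versus no kanamycin, normalised to wild type. E. coli BL21(DE3) held the library, which randomised all eight P1ex-region intron nucleotides within the knt kanamycin-resistance gene on pET-22b(+). Six replicate transformations grew overnight at 37°C or 30°C on LB agar with or without 25 μg/mL kanamycin, also containing 100 μg/mL carbenicillin, 50 μM IPTG and 0.2% rhamnose, and pooled colonies were amplicon-sequenced on an Illumina HiSeq 2500.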

Sequence	self-splicing fitness (ln) (30 °C)	self-splicing fitness (ln) (37 °C)
AUCUAGCAAUAUUACGAAGU	-0.522 ± 0.24	-0.543 ± 0.31
AUCUAGCAAUAUUACGACCG	-0.961 ± 0.39	-0.253 ± 0.33
AUCUAGCAAUAUUACGCAUA	-2.4 ± 0.18	-1.69 ± 0.15
AUCUAGCAAUAUUACGCAUU	-1.48 ± 0.1	-0.414 ± 0.1
AUCUAGCAAUAUUACGCCUC	-1.62 ± 0.19	-1.33 ± 0.34
AUCUAGCAAUAUUACGCUCU	-0.469 ± 0.11	-0.244 ± 0.12
AUCUAGCAAUAUUACGGACA	-0.495 ± 0.14	0.224 ± 0.13
AUCUAGCAAUAUUACGGAGA	-2.16 ± 0.2	-1.32 ± 0.16
AUCUAGCAAUAUUACGGAUU	-4.46 ± 0.32	-2.38 ± 0.23
AUCUAGCAAUAUUACGGCGC	-0.932 ± 0.11	-0.0721 ± 0.14
AUCUAGCAAUAUUACGGCUG	-1.21 ± 0.14	0.594 ± 0.18
AUCUAGCAAUAUUACGGUCG	-2.96 ± 0.22	0.125 ± 0.18
AUCUAGCAAUAUUACGGUGG	-4.43 ± 0.46	-2.53 ± 0.19
AUCUAGCAAUAUUACGGUGU	-2.17 ± 0.076	-0.462 ± 0.081
AUCUAGCAAUAUUACGUAAG	-2.37 ± 0.12	-1.16 ± 0.15
AUCUAGCAAUAUUACGUAGU	-1.83 ± 0.096	-0.758 ± 0.11
AUCUAGCAAUAUUACGUCCG	-1.67 ± 0.2	-1.42 ± 0.28
AUCUAGCAAUAUUACGUCGG	-3.23 ± 0.2	-2.72 ± 0.27
AUCUAGCAAUAUUACGUCUG	-1.72 ± 0.14	-0.625 ± 0.14
AUGAAGCAAUAUUACGAAAA	-2.58 ± 0.17	-0.92 ± 0.15
AUGAAGCAAUAUUACGAAUA	-1.17 ± 0.11	-0.537 ± 0.17
AUGAAGCAAUAUUACGACUC	0.055 ± 0.11	0.123 ± 0.13
AUGAAGCAAUAUUACGACUG	-0.375 ± 0.097	-0.617 ± 0.11
AUGAAGCAAUAUUACGAUGG	-3.18 ± 0.18	-1.92 ± 0.16
AUGAAGCAAUAUUACGCAAU	-1.03 ± 0.11	-0.743 ± 0.12

Sequence	self-splicing fitness (ln) (30 °C)	self-splicing fitness (ln) (37 °C)
AUGAAGCAAUAUUACGCCCA	0.226 ± 0.22	0.0745 ± 0.25
AUGAAGCAAUAUUACGCCUC	-0.0224 ± 0.2	-1.19 ± 0.33
AUGAAGCAAUAUUACGCGGC	-2.46 ± 0.31	-2.26 ± 0.29
AUGAAGCAAUAUUACGCUAU	-1.47 ± 0.091	-1.21 ± 0.12
AUGAAGCAAUAUUACGGACG	-0.554 ± 0.066	0.536 ± 0.091
AUGAAGCAAUAUUACGGAGC	-3.69 ± 0.39	-1.72 ± 0.2
AUGAAGCAAUAUUACGGAUA	-0.747 ± 0.088	-0.113 ± 0.11
AUGAAGCAAUAUUACGGCGU	0.47 ± 0.064	0.205 ± 0.078
AUGAAGCAAUAUUACGGCUU	-4.22 ± 0.24	-3.03 ± 0.21
AUGAAGCAAUAUUACGGGCC	-1.73 ± 0.29	-0.73 ± 0.22
AUGAAGCAAUAUUACGGUAC	-1.71 ± 0.14	-0.139 ± 0.13
AUGAAGCAAUAUUACGGUGA	-0.607 ± 0.069	0.195 ± 0.096
AUGAAGCAAUAUUACGGUGU	-1.33 ± 0.062	-0.601 ± 0.078
AUGAAGCAAUAUUACGGUUC	-1.29 ± 0.099	-1.8 ± 0.15
AUGAAGCAAUAUUACGUCCA	-0.138 ± 0.075	0.611 ± 0.11
AUGAAGCAAUAUUACGUGGC	-3.92 ± 0.25	-2.56 ± 0.31
AUGAAGCAAUAUUACGUGUC	-2.97 ± 0.28	-2.26 ± 0.34
AUGAAGCAAUAUUACGUUUA	-0.538 ± 0.061	-0.537 ± 0.079
AUGCAGCAAUAUUACGAAGC	-3.21 ± 0.19	-0.72 ± 0.21
AUGCAGCAAUAUUACGACCC	-0.995 ± 0.2	-0.303 ± 0.31
AUGCAGCAAUAUUACGACUC	-0.57 ± 0.11	0.501 ± 0.11
AUGCAGCAAUAUUACGACUG	-3.44 ± 0.23	-2.8 ± 0.31
AUGCAGCAAUAUUACGAGAA	-3.47 ± 0.32	-2.64 ± 0.34
AUGCAGCAAUAUUACGCCAC	-2.31 ± 0.47	-2.1 ± 0.36
AUGCAGCAAUAUUACGCGCA	-1.91 ± 0.14	-1.39 ± 0.099

Sequence	self-splicing fitness (ln) (30 °C)	self-splicing fitness (ln) (37 °C)
AUGCAGCAAUAUUACGCGCU	-1.37 ± 0.097	-1.22 ± 0.12
AUGCAGCAAUAUUACGCUCA	-0.858 ± 0.061	-0.215 ± 0.075
AUGCAGCAAUAUUACGCUCG	-1.89 ± 0.11	-0.774 ± 0.13
AUGCAGCAAUAUUACGGAAC	–	-2.76 ± 0.36
AUGCAGCAAUAUUACGGAAG	-3.07 ± 0.16	-2.01 ± 0.2
AUGCAGCAAUAUUACGGAGU	-1.78 ± 0.093	-1.44 ± 0.11
AUGCAGCAAUAUUACGGCCC	-0.0496 ± 0.14	0.777 ± 0.19
AUGCAGCAAUAUUACGGCCG	-1.62 ± 0.27	-1.05 ± 0.3
AUGCAGCAAUAUUACGGCGU	-4.06 ± 0.24	-1.76 ± 0.2
AUGCAGCAAUAUUACGGCUG	-2.78 ± 0.15	-1.68 ± 0.23
AUGCAGCAAUAUUACGGGUA	-1.56 ± 0.13	-1.12 ± 0.14
AUGCAGCAAUAUUACGUAAC	-2.78 ± 0.2	-0.366 ± 0.15
AUGCAGCAAUAUUACGUCAG	-2.17 ± 0.092	-1.12 ± 0.11
AUGCAGCAAUAUUACGUUCU	-0.207 ± 0.058	0.262 ± 0.079
AUGGAGCAAUAUUACGAACA	-1.55 ± 0.38	–
AUGGAGCAAUAUUACGACGA	–	0.0911 ± 0.24
AUGGAGCAAUAUUACGAUCU	–	-0.713 ± 0.31
AUGGAGCAAUAUUACGCAAA	-2.21 ± 0.36	–
AUGGAGCAAUAUUACGCAAU	-1.33 ± 0.19	-1.44 ± 0.24
AUGGAGCAAUAUUACGCAGA	-2.19 ± 0.32	–
AUGGAGCAAUAUUACGCAGG	-3.69 ± 0.26	-2.89 ± 0.4
AUGGAGCAAUAUUACGCCCA	-1.95 ± 0.27	-1.03 ± 0.26
AUGGAGCAAUAUUACGCGAG	-2.22 ± 0.3	–
AUGGAGCAAUAUUACGGCGG	-3.85 ± 0.37	-1.82 ± 0.34
AUGGAGCAAUAUUACGGUUA	–	-2.16 ± 0.34

Sequence	self-splicing fitness (ln) (30 °C)	self-splicing fitness (ln) (37 °C)
AUGGAGCAAUAUUACGGUUC	-3.93 ± 0.42	-2.56 ± 0.38
AUGGAGCAAUAUUACGUAAG	-2.69 ± 0.2	-0.735 ± 0.17
AUGGAGCAAUAUUACGUAUU	-3.29 ± 0.24	-2.21 ± 0.16
AUGGAGCAAUAUUACGUCAG	-2.47 ± 0.32	-1.41 ± 0.44
AUGGAGCAAUAUUACGUUCU	-2.64 ± 0.22	-3.2 ± 0.4
AUGGAGCAAUAUUACGUUUG	-3.38 ± 0.29	-2.58 ± 0.36
AUGUAGCAAUAUUACGAAAU	-1.92 ± 0.086	-0.989 ± 0.11
AUGUAGCAAUAUUACGAAUG	-2.89 ± 0.28	-2.37 ± 0.29
AUGUAGCAAUAUUACGACCA	-0.549 ± 0.17	-0.552 ± 0.17
AUGUAGCAAUAUUACGACCC	-0.73 ± 0.26	-0.517 ± 0.3
AUGUAGCAAUAUUACGACGU	-0.432 ± 0.087	0.442 ± 0.095
AUGUAGCAAUAUUACGAGAA	-2.68 ± 0.39	-1.01 ± 0.22
AUGUAGCAAUAUUACGAUCC	-0.944 ± 0.14	-0.204 ± 0.15
AUGUAGCAAUAUUACGAUCU	-0.222 ± 0.056	0.524 ± 0.073
AUGUAGCAAUAUUACGCACA	-0.084 ± 0.13	0.428 ± 0.17
AUGUAGCAAUAUUACGCAGA	-2.74 ± 0.36	0.109 ± 0.18
AUGUAGCAAUAUUACGCAUC	-3.66 ± 0.27	-2.51 ± 0.45
AUGUAGCAAUAUUACGCCAC	-3.49 ± 0.36	–
AUGUAGCAAUAUUACGCGAG	-1.71 ± 0.13	-0.706 ± 0.13
AUGUAGCAAUAUUACGCGGA	-2.41 ± 0.3	-1.09 ± 0.2
AUGUAGCAAUAUUACGCUGG	-3.03 ± 0.14	-1.92 ± 0.16
AUGUAGCAAUAUUACGGGCC	-2.93 ± 0.35	-1.86 ± 0.32
AUGUAGCAAUAUUACGGGCU	-2.18 ± 0.16	-0.877 ± 0.16

From the supplement of paper PMC7877785
